Test results reported in the Human Domainome abundance scans (Beltran et al. 2025).

B1: Protein C-ets-1, residues 55 to 135; numbered along this chain, P14921 (parent)
chain: GFTKEQQRLGIPKDPRQWTETHVRDWVMWAVNEFSLKGVDFQKFCMNGAALCALGKDCFLELAPDFVGDILWEHLEILQKE

Variants of: B1
Assay: abundance fitness (aPCA) (normalised: wild type 0, dead -1); higher = more abundant; growth selection in yeast, the domain comes from the species named
Conditions: Homo sapiens

Abundance fitness: each site, then its substitutions
A50: F -0.375; R -0.063; E 0.02; H -0.076; M -0.007; P -0.811; C -0.116; T -0.026; D 0.026; Q 0.015; L -0.202; W -0.548; I -0.236; Y -0.351; K 0.042; G -0.202
C52: F -0.325; A -0.303; G -0.562; H -0.534; E -0.542
N32: Y -0.327; W -0.332; T -0.042; V -0.111
M46: G -0.671; W -0.631; E -0.991; P -0.852; D -0.777; K -0.376; C -0.317; V -0.234; T -0.477; F -0.028; Q -0.335; Y -0.203; I -0.154; R -0.507; H -0.441; L -0.074; A -0.652; S -0.724
F41: T 0.007; R -0.094; D -0.053; E -0.031; I 0.022; V 0.044; Q -0.134; W -0.1; G -0.128; H 0.045; P 0.059; C -0.034; S -0.042; M 0.056; L 0.051; Y 0.055; K -0.072; N -0.039
K37: W -0.213; D -0.022; L -0.161; S -0.033; N -0.033; T -0.027; G -0.054; C -0.128; V -0.017; A -0.046; R -0.076; Q 0.005; F -0.199; H -0.048; E 0.044; M -0.146; I -0.064; Y -0.255; P -0.043
N47: H -0.152; S -0.003; L -0.879; D -0.007; V -0.903; C -0.223; Q -0.277; M -0.881; E -0.165; G -0.185; T 0.065; W -1.01; P 0.014; K -0.204
F44: V -0.539; T -0.766; W -0.138; H -0.89; M -0.275; G -1.02; K -1.04; S -0.76; Q -1.08; P -0.892; E -0.73; R -0.939; N -1.01; A -0.769; D -0.724; I -0.38; C -1.01
C45: K -0.067; F -0.028; H 0.052; L -0.087; A 0.053; Q -0.002; Y -0.032; M -0.019; P -0.344; N 0.116; V -0.05; R -0.024; E 0.022; T -0.007; S 0.01; W -0.041
S35: V -0.381; D 0.017; F -0.413; W -0.559; C -0.072; G 0.012; I -0.539; L -0.364; K -0.012; P -0.625; A -0.069; M -0.142; Y -0.288; T -0.034; N -0.178; Q 0.062; R -0.029
V39: M -0.267; G -0.714; S -0.624; F -0.239; L -0.141; I -0.061; Y -0.688; R -0.749; A -0.511; K -0.533; N -0.755; D -0.699; C -0.194; W -0.445; T -0.387; H -0.537; Q -0.683
K43: T -0.302; D -0.2; I -0.424; Q -0.086; M -0.315; E -0.283; N -0.049; R -0.007; H -0.187; C -0.206; V -0.425; S -0.185; F -0.494; G -0.289; Y -0.351
D40: E -0.059; R -0.245; C -0.134; H -0.225; T -0.363; M -0.368; W -0.77; A -0.294; N -0.146; F -0.685; V -0.209; P -0.343; L -0.482; K -0.234; Q -0.045; S -0.164; I -0.32; G -0.546; Y -0.651
F34: D -0.623; N -0.244; K -0.175; P -0.886; R -0.3; C -0.428; T -0.743; W -0.039; S -0.52; Q -0.358; Y -0.023; I -0.9; H -0.084; A -0.493; L -0.276; M -0.362; E -0.425
E33: G -0.539; R -0.042; H -0.006; Q -0.099; C -0.132; K -0.001; I -0.498; N -0.078; W -0.179; A -0.071; F -0.134; P -0.796; S -0.117; T -0.063; M -0.316; L -0.503; Y -0.099
L36: V -0.276; Y -0.539; Q -0.624; A -0.52; I -0.215; E -1; C -0.332; P -0.725; N -0.691; G -0.661; T -0.697; K -0.58; S -0.751; F -0.139; M -0.343; R -1.05; D -0.763; W -0.29
G38: S -0.123; R -0.18; P -0.172; C -0.334; W -0.467; K -0.055; H 0; Q -0.221; L -0.492; T -0.201; E -0.103; A -0.202; F -0.43; N 0.052; I -0.428; V -0.476; D -0.039; M -0.273
Q42: S -0.007; I -0.619; C -0.259; L -0.307; W -0.681; A -0.071; P -0.214; Y -0.291; N -0.047; K -0.075; D -0.029; T -0.052; V -0.358; M -0.237; R -0.017; E 0.021; F -0.664; H -0.068; G 0.007
A49: R -0.013; I -0.237; L -0.132; H -0.058; C -0.372; D -0.04; N -0.139; Y -0.262; E 0.02; V -0.162; F -0.339; Q -0.011; P -0.137; K 0.085; M -0.055; G -0.126; T -0.048; W -0.3
L51: K -1.08; C -0.803; T -0.961; W -0.893; I -0.15; F -0.894; R -0.788; H -0.813; M -0.11; E -0.952; N -0.718; Y -0.94; G -1.03; D -0.97; Q -0.923; A -0.847; P -0.794
G48: N -0.758; A -0.972; I -1.03; L -1.05; E -0.806; Q -0.931; H -0.94; S -0.911; R -0.933; M -1.07; P -1.02; C -0.884; K -0.911; V -0.805; W -0.797
